In this assay the target is T1, His-PCID2 (PCI domain-containing protein 2) (mouse, UniProt Q8BFV2 1-399).
T1 construct: PCID2 (PCI domain-containing protein 2), mouse full-length Pcid2 subcloned into pETDuet; the plasmid section names only the mouse construct; also called His-tagged PCID2; recombinant PCID2 protein; source: E. coli, purified (Ni-NTA His-resins)
As to the kind of experiment: pull-down; GST-ZNHIT1 incubated with His-PCID2 protein, GST pulldown. The following applies: both partners purified.

T1 sequence (Q8BFV2 whole entry, the tested form may be a part): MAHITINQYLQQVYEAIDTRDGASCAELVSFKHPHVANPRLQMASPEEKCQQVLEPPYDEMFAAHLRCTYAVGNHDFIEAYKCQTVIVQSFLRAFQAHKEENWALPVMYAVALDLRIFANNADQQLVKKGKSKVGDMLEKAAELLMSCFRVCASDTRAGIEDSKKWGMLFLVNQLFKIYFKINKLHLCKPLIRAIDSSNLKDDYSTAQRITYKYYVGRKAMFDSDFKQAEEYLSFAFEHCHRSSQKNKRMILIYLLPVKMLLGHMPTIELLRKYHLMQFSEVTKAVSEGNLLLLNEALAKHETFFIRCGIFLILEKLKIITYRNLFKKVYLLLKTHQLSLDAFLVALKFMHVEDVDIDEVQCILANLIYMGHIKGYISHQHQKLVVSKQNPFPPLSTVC

B1: GST-ZNHIT1 (Zinc finger HIT-type containing 1) (natural protein, mouse, UniProt Q8R331 1-154, looked up)
chain: MVEKKPAVRSQDPGQRRVLDRAARQRRINRQLEALENDNFQDDPHAGLPQLGKRLPQFDDDADTGKKKKKTRGDHFKLRFRKNFQALLEEQNLSASEGPNYLTACAGPPSRPQRPFCAVCGFPSPYTCVSCGARYCTVRCLGTHQETRCLKWTV
notes: ZNHIT1 (Zinc finger HIT-type containing 1, p18^hamlet), mouse Znhit1 cloned into pGEX-6P-1; Vector pGEX-6P-1; also called GST-tagged ZNHIT1; p18^hamlet; source: E. coli, purified (Glutathione Sepharose 4B)
As to B1, the binding result is given as “binds”.
